Results from PMC12084609, “Structural insights into small-molecule agonist recognition and activation of complement receptor C3aR” (The EMBO Journal, 2025).
Positions count from the first letter of the chain named. Where “and” joins values, the source holds several entries; their conditions need not be identical. Equal entries are not always repeated.

Key:
Assay type in all cases: cell-based
C3aR M106^3.36A = target: T1, C3aR M106^3.36A (Homo sapiens, UniProt Q16581, M106A); assay: GloSensor-based cAMP assay, C3aR mutant M106A; conditions: for cAMP response (% Forskolin): single replicates
T1 construct: expressed in transfected cells; host or cells: HEK293T
T1 sequence (Q16581 1-482 M106A): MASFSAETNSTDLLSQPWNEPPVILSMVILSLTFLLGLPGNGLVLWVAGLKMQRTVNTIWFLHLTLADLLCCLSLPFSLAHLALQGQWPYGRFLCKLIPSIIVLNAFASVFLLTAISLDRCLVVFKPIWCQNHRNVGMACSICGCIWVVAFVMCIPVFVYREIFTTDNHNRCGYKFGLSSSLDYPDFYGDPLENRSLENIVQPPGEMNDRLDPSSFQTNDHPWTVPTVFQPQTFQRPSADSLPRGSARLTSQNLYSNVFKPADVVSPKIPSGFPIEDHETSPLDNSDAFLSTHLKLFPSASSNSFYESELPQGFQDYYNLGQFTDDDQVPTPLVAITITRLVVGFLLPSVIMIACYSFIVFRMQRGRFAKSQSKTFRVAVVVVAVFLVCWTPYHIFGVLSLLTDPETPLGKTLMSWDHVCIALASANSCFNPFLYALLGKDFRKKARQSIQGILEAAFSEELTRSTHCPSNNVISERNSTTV
Description: (§1) HEK293T cells were seeded on 6-well plates (NEST) and transfected with pGlosensor™-22F plasmids (Promega) and pcDNA3.1 plasmids encoding C3aR or its mutants an with N-terminal FLAG tag. After 48 h, cells were detached with Accutase solution (Sigma-Aldrich) and washed with PBS, and resuspended in assay buffer (CO2-independent medium with 0.5 mg mL^−1D-luciferin). 100,000–200,000 cells were seeded on 96-well white bottom plates (SPL) and incubated at 37 °C for 45 min followed by 45 min incubation at room temperature. After 90 min of incubation, basal luminescence signals were recorded. In total, 25 μl of test ligand with various concentrations and 1 μM Forskolin (Sigma-Aldrich) were treated to the cells and luminescence signals were measured by Tristar 2 LB 942 multimode reader (Berthold). […] Relative luminescence unit (%) was calculated with the signal of wells treated with vehicle as 0% and the signal of wells treated with 1 μM Forskolin as 100% (DiRaddo et al, [2014]). Nonlinear regression was performed using a three-parameter logistic equation.

C3aR S26^1.35A = target: T2, C3aR S26^1.35A (Homo sapiens, UniProt Q16581, S26A); assay: GloSensor-based cAMP assay, C3aR mutant S26A; conditions: for cAMP response (% Forskolin): S261.35A, single replicates
T2 construct: expressed in transfected cells; host or cells: HEK293T
T2 sequence (Q16581 1-482 S26A): T1 sequence (Q16581 1-482 M106A) with S26A, A106M
Description: as §1

C3aR L82^2.64A = target: T3, C3aR L82^2.64A (Homo sapiens, UniProt Q16581, L82A); assay: GloSensor-based cAMP assay, C3aR mutant L82A; conditions: for cAMP response (% Forskolin): L822.64A, single replicates
T3 construct: expressed in transfected cells; host or cells: HEK293T
T3 sequence (Q16581 1-482 L82A): T1 sequence (Q16581 1-482 M106A) with L82A, A106M
Description: as §1

[1] = Dunnett's multiple comparisons test, WT minus mutant

For “C3a: anaphylatoxin C3a, natural peptide ligand of C3aR (a 77-amino acid peptide), Sigma-Aldrich”, the “Mean Diff. of pIC50, WT vs. M106A” value (C3aR M106^3.36A; [1]) was 0.034, the “cAMP response (% Forskolin)” value (C3aR M106^3.36A; M106A, Log[C3a (M)] -7) was 8.75 % Forskolin and 12.90 % Forskolin and 9.09 % Forskolin and the “cAMP response (% Forskolin)” value (C3aR M106^3.36A; M106A, Log[C3a (M)] -8) was 9.11 % Forskolin and 12.58 % Forskolin and 9.15 % Forskolin. The “cAMP response (% Forskolin)” value (C3aR M106^3.36A; M106A, Log[C3a (M)] -9) was 42.52 % Forskolin and 48.08 % Forskolin and 24.26 % Forskolin, the “cAMP response (% Forskolin)” value (C3aR M106^3.36A; M106A, Log[C3a (M)] -10) was 70.86 % Forskolin and 84.09 % Forskolin and 59.73 % Forskolin and the “cAMP response (% Forskolin)” value (C3aR M106^3.36A; M106A, Log[C3a (M)] -11) was 100.00 % Forskolin and 94.62 % Forskolin and 93.38 % Forskolin. For the same substance, the “cAMP response (% Forskolin)” value (C3aR M106^3.36A; M106A, Log[C3a (M)] -12) was 103.69 % Forskolin and 97.63 % Forskolin and 101.57 % Forskolin, the “ΔpIC50 ± SE of Diff.” value (C3aR M106^3.36A; M106^3.36A relative to WT C3aR) was -0.03 ± 0.03 and the “pIC50 (Replicate)” value (C3aR M106^3.36A; M106^3.36A, individual replicates) was 8.59 and 8.68 and 8.47 and 8.31. For the same substance, the “cAMP response (% Forskolin)” value (C3aR M106^3.36A; M1063.36A, Log[C3a (M)] -7) was 12.14 % Forskolin and 11.95 % Forskolin and 11.63 % Forskolin and 13.11 % Forskolin, the “cAMP response (% Forskolin)” value (C3aR M106^3.36A; M1063.36A, Log[C3a (M)] -8) was 15.30 % Forskolin and 16.36 % Forskolin and 17.61 % Forskolin and 30.65 % Forskolin and the “cAMP response (% Forskolin)” value (C3aR M106^3.36A; M1063.36A, Log[C3a (M)] -9) was 79.42 % Forskolin and 72.88 % Forskolin and 85.10 % Forskolin and 95.05 % Forskolin. The “cAMP response (% Forskolin)” value (C3aR M106^3.36A; M1063.36A, Log[C3a (M)] -10) was 93.61 % Forskolin and 101.94 % Forskolin and 98.48 % Forskolin and 102.99 % Forskolin, the “cAMP response (% Forskolin)” value (C3aR M106^3.36A; M1063.36A, Log[C3a (M)] -11) was 97.40 % Forskolin and 101.43 % Forskolin and 95.22 % Forskolin and 99.89 % Forskolin and the “cAMP response (% Forskolin)” value (C3aR M106^3.36A; M1063.36A, Log[C3a (M)] -12) was 100.17 % Forskolin and 94.23 % Forskolin and 92.07 % Forskolin and 95.27 % Forskolin. The “Mean Diff. of pIC50, WT vs. S26A” value (C3aR S26^1.35A; [1]) was 0.018, the “ΔpIC50 ± SE of Diff.” value (C3aR S26^1.35A; S26^1.35A relative to WT C3aR) was -0.018 ± 0.007 and the IC50 (C3aR S26^1.35A; S26^1.35A, dose-response plot, read-out: IC50) was 2.4 nM. For the same substance, the “pIC50 (Replicate)” value (C3aR S26^1.35A; S26^1.35A, individual replicates) was 8.46 and 8.90 and 8.92 and 8.44, the “pIC50 ± SEM (Mean)” value (C3aR S26^1.35A; S26^1.35A, mean of independent experiments) was 8.68 and the “cAMP response (% Forskolin)” value (C3aR S26^1.35A; Log[C3a (M)] -7) was 6.63 % Forskolin and 16.74 % Forskolin and 7.89 % Forskolin and 6.95 % Forskolin. The “cAMP response (% Forskolin)” value (C3aR S26^1.35A; Log[C3a (M)] -8) was 10.18 % Forskolin and 21.44 % Forskolin and 11.61 % Forskolin and 10.34 % Forskolin, the “cAMP response (% Forskolin)” value (C3aR S26^1.35A; Log[C3a (M)] -9) was 93.63 % Forskolin and 62.67 % Forskolin and 56.93 % Forskolin and 99.13 % Forskolin and the “cAMP response (% Forskolin)” value (C3aR S26^1.35A; Log[C3a (M)] -10) was 100.97 % Forskolin and 93.52 % Forskolin and 93.48 % Forskolin and 106.03 % Forskolin. The “cAMP response (% Forskolin)” value (C3aR S26^1.35A; Log[C3a (M)] -11) was 99.94 % Forskolin and 102.62 % Forskolin and 98.56 % Forskolin and 106.48 % Forskolin, the “cAMP response (% Forskolin)” value (C3aR S26^1.35A; Log[C3a (M)] -12) was 101.64 % Forskolin and 96.07 % Forskolin and 97.79 % Forskolin and 99.89 % Forskolin and the “Mean Diff. of pIC50, WT vs. L82A” value (C3aR L82^2.64A; [1]) was -0.166. For the same substance, the “ΔpIC50 ± SE of Diff.” value (C3aR L82^2.64A; L82^2.64A relative to WT C3aR) was 0.17 ± 0.05, the IC50 (C3aR L82^2.64A; L82^2.64A, dose-response plot, read-out: IC50) was 1.98 nM and the “pIC50 (Replicate)” value (C3aR L82^2.64A; L82^2.64A, individual replicates) was 8.88 and 8.82 and 8.71 and 8.44. For the same substance, the “pIC50 ± SEM (Mean)” value (C3aR L82^2.64A; L82^2.64A, mean of independent experiments) was 8.71 ± 0.10 and 8.71, the “cAMP response (% Forskolin)” value (C3aR L82^2.64A; Log[C3a (M)] -7) was 6.88 % Forskolin and 9.71 % Forskolin and 10.14 % Forskolin and 11.39 % Forskolin and the “cAMP response (% Forskolin)” value (C3aR L82^2.64A; Log[C3a (M)] -8) was 8.74 % Forskolin and 11.60 % Forskolin and 12.67 % Forskolin and 19.68 % Forskolin. The “cAMP response (% Forskolin)” value (C3aR L82^2.64A; Log[C3a (M)] -9) was 57.84 % Forskolin and 63.09 % Forskolin and 70.46 % Forskolin and 87.20 % Forskolin, the “cAMP response (% Forskolin)” value (C3aR L82^2.64A; Log[C3a (M)] -10) was 90.69 % Forskolin and 88.60 % Forskolin and 91.27 % Forskolin and 91.83 % Forskolin and the “cAMP response (% Forskolin)” value (C3aR L82^2.64A; Log[C3a (M)] -11) was 96.32 % Forskolin and 92.63 % Forskolin and 98.10 % Forskolin and 96.40 % Forskolin. For the same substance, the “cAMP response (% Forskolin)” value (C3aR L82^2.64A; Log[C3a (M)] -12) was 96.44 % Forskolin and 101.07 % Forskolin and 97.65 % Forskolin and 97.10 % Forskolin.
